# Data as given in patent publication US20140087995A1 (published 2014).
# Numbered stars: 1 amine (or outer) side, 2 acyl side, 3 side chain; on linkers, the order of the positions; unused ones are H or OH. Bridge positions count the residues as written; N and C are the ends. * marks the point of attachment. C20 diacid = O=C(O)CCCCCCCCCCCCCCCCCCC(=O)*; γGlu = O=C(O)[C@H](CCC(=O)[*:2])N[*:1]
# T1: human calcitonin receptor (human, UniProt P30988 25-474)
# T1 sequence (looked up): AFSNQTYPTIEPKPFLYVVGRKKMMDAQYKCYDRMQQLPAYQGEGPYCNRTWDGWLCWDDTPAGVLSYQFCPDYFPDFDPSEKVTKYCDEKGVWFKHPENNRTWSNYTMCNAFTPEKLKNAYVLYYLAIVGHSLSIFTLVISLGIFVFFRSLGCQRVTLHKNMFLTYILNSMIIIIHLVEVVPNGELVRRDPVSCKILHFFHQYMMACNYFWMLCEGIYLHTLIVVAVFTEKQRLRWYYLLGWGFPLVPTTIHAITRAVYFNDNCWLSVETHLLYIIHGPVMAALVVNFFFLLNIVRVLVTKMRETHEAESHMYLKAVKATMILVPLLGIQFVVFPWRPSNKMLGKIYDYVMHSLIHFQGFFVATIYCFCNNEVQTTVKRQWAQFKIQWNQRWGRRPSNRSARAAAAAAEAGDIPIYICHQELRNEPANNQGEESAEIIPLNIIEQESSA
# T2: human amylin receptor (amylin 3(a) receptor: human calcitonin receptor plus RAMP-3) (human, UniProt P30988 25-474; O60896 24-148, limits assumed)
# T2 sequence (looked up) 1: T1 sequence (looked up)
# T2 sequence (looked up) 2: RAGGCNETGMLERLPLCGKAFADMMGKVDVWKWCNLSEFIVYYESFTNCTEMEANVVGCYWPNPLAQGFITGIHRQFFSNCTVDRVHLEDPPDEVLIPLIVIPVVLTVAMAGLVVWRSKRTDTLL
# B1: N^α1-[(4S)-4-carboxy-4-(19-carboxynonadecanoylamino)butanoyl]-[Arg17,Pro21,Pro27,Pro34,Glu35]-h-amylin (peptide)
# peptide: {C20 diacid-γGlu}-KCNTATCATQRLANFLRHSSPNFGAIPSSTNVGPETY-NH2
# modifications: disulfide 2-7
# SMILES: CC[C@H](C)[C@H](NC(=O)[C@H](C)NC(=O)CNC(=O)[C@H](Cc1ccccc1)NC(=O)[C@H](CC(N)=O)NC(=O)[C@@H]1CCCN1C(=O)[C@H](CO)NC(=O)[C@H](CO)NC(=O)[C@H](Cc1c[nH]cn1)NC(=O)[C@H](CCCNC(=N)N)NC(=O)[C@H](CC(C)C)NC(=O)[C@H](Cc1ccccc1)NC(=O)[C@H](CC(N)=O)NC(=O)[C@H](C)NC(=O)[C@H](CC(C)C)NC(=O)[C@H](CCCNC(=N)N)NC(=O)[C@H](CCC(N)=O)NC(=O)[C@@H](NC(=O)[C@H](C)NC(=O)[C@@H]1CSSC[C@H](NC(=O)[C@H](CCCCN)NC(=O)CC[C@H](NC(=O)CCCCCCCCCCCCCCCCCCC(=O)O)C(=O)O)C(=O)N[C@@H](CC(N)=O)C(=O)N[C@@H]([C@@H](C)O)C(=O)N[C@@H](C)C(=O)N[C@@H]([C@@H](C)O)C(=O)N1)[C@@H](C)O)C(=O)N1CCC[C@H]1C(=O)N[C@@H](CO)C(=O)N[C@@H](CO)C(=O)N[C@H](C(=O)N[C@@H](CC(N)=O)C(=O)N[C@H](C(=O)NCC(=O)N1CCC[C@H]1C(=O)N[C@@H](CCC(=O)O)C(=O)N[C@H](C(=O)N[C@@H](Cc1ccc(O)cc1)C(N)=O)[C@@H](C)O)C(C)C)[C@@H](C)O
# notes: also called compound 29
# B2: N^α1-[(4S)-4-carboxy-4-(19-carboxynonadecanoylamino)butanoyl]-[Asp14,Arg17,Pro21,Pro27,Pro37]-h-amylin (peptide)
# peptide: {C20 diacid-γGlu}-KCNTATCATQRLADFLRHSSPNFGAIPSSTNVGSNTP-NH2
# modifications: disulfide 2-7
# SMILES: CC[C@H](C)[C@H](NC(=O)[C@H](C)NC(=O)CNC(=O)[C@H](Cc1ccccc1)NC(=O)[C@H](CC(N)=O)NC(=O)[C@@H]1CCCN1C(=O)[C@H](CO)NC(=O)[C@H](CO)NC(=O)[C@H](Cc1c[nH]cn1)NC(=O)[C@H](CCCNC(=N)N)NC(=O)[C@H](CC(C)C)NC(=O)[C@H](Cc1ccccc1)NC(=O)[C@H](CC(=O)O)NC(=O)[C@H](C)NC(=O)[C@H](CC(C)C)NC(=O)[C@H](CCCNC(=N)N)NC(=O)[C@H](CCC(N)=O)NC(=O)[C@@H](NC(=O)[C@H](C)NC(=O)[C@@H]1CSSC[C@H](NC(=O)[C@H](CCCCN)NC(=O)CC[C@H](NC(=O)CCCCCCCCCCCCCCCCCCC(=O)O)C(=O)O)C(=O)N[C@@H](CC(N)=O)C(=O)N[C@@H]([C@@H](C)O)C(=O)N[C@@H](C)C(=O)N[C@@H]([C@@H](C)O)C(=O)N1)[C@@H](C)O)C(=O)N1CCC[C@H]1C(=O)N[C@@H](CO)C(=O)N[C@@H](CO)C(=O)N[C@H](C(=O)N[C@@H](CC(N)=O)C(=O)N[C@H](C(=O)NCC(=O)N[C@@H](CO)C(=O)N[C@@H](CC(N)=O)C(=O)N[C@H](C(=O)N1CCC[C@H]1C(N)=O)[C@@H](C)O)C(C)C)[C@@H](C)O
# notes: also called compound 10
# B3: N^α1-[(4S)-4-carboxy-4-(19-carboxynonadecanoylamino)butanoyl]-[Glu14,Arg17,Pro21,Pro27,His35]-h-amylin (peptide)
# peptide: {C20 diacid-γGlu}-KCNTATCATQRLAEFLRHSSPNFGAIPSSTNVGSHTY-NH2
# modifications: disulfide 2-7
# SMILES: CC[C@H](C)[C@H](NC(=O)[C@H](C)NC(=O)CNC(=O)[C@H](Cc1ccccc1)NC(=O)[C@H](CC(N)=O)NC(=O)[C@@H]1CCCN1C(=O)[C@H](CO)NC(=O)[C@H](CO)NC(=O)[C@H](Cc1c[nH]cn1)NC(=O)[C@H](CCCNC(=N)N)NC(=O)[C@H](CC(C)C)NC(=O)[C@H](Cc1ccccc1)NC(=O)[C@H](CCC(=O)O)NC(=O)[C@H](C)NC(=O)[C@H](CC(C)C)NC(=O)[C@H](CCCNC(=N)N)NC(=O)[C@H](CCC(N)=O)NC(=O)[C@@H](NC(=O)[C@H](C)NC(=O)[C@@H]1CSSC[C@H](NC(=O)[C@H](CCCCN)NC(=O)CC[C@H](NC(=O)CCCCCCCCCCCCCCCCCCC(=O)O)C(=O)O)C(=O)N[C@@H](CC(N)=O)C(=O)N[C@@H]([C@@H](C)O)C(=O)N[C@@H](C)C(=O)N[C@@H]([C@@H](C)O)C(=O)N1)[C@@H](C)O)C(=O)N1CCC[C@H]1C(=O)N[C@@H](CO)C(=O)N[C@@H](CO)C(=O)N[C@H](C(=O)N[C@@H](CC(N)=O)C(=O)N[C@H](C(=O)NCC(=O)N[C@@H](CO)C(=O)N[C@@H](Cc1c[nH]cn1)C(=O)N[C@H](C(=O)N[C@@H](Cc1ccc(O)cc1)C(N)=O)[C@@H](C)O)C(C)C)[C@@H](C)O
# notes: also called compound 18
# B4: N^α1-[(4S)-4-carboxy-4-(19-carboxynonadecanoylamino)butanoyl]-[Glu14,Arg17,Pro21,Pro27,His34]-h-amylin (peptide)
# peptide: {C20 diacid-γGlu}-KCNTATCATQRLAEFLRHSSPNFGAIPSSTNVGHNTY-NH2
# modifications: disulfide 2-7
# SMILES: CC[C@H](C)[C@H](NC(=O)[C@H](C)NC(=O)CNC(=O)[C@H](Cc1ccccc1)NC(=O)[C@H](CC(N)=O)NC(=O)[C@@H]1CCCN1C(=O)[C@H](CO)NC(=O)[C@H](CO)NC(=O)[C@H](Cc1c[nH]cn1)NC(=O)[C@H](CCCNC(=N)N)NC(=O)[C@H](CC(C)C)NC(=O)[C@H](Cc1ccccc1)NC(=O)[C@H](CCC(=O)O)NC(=O)[C@H](C)NC(=O)[C@H](CC(C)C)NC(=O)[C@H](CCCNC(=N)N)NC(=O)[C@H](CCC(N)=O)NC(=O)[C@@H](NC(=O)[C@H](C)NC(=O)[C@@H]1CSSC[C@H](NC(=O)[C@H](CCCCN)NC(=O)CC[C@H](NC(=O)CCCCCCCCCCCCCCCCCCC(=O)O)C(=O)O)C(=O)N[C@@H](CC(N)=O)C(=O)N[C@@H]([C@@H](C)O)C(=O)N[C@@H](C)C(=O)N[C@@H]([C@@H](C)O)C(=O)N1)[C@@H](C)O)C(=O)N1CCC[C@H]1C(=O)N[C@@H](CO)C(=O)N[C@@H](CO)C(=O)N[C@H](C(=O)N[C@@H](CC(N)=O)C(=O)N[C@H](C(=O)NCC(=O)N[C@@H](Cc1c[nH]cn1)C(=O)N[C@@H](CC(N)=O)C(=O)N[C@H](C(=O)N[C@@H](Cc1ccc(O)cc1)C(N)=O)[C@@H](C)O)C(C)C)[C@@H](C)O
# notes: also called compound 17
# B5: N^α1-[(4S)-4-carboxy-4-(19-carboxynonadecanoylamino)butanoyl]-[Glu14,Arg17,Pro21,Pro27,Asp35,Pro37]-h-amylin (peptide)
# peptide: {C20 diacid-γGlu}-KCNTATCATQRLAEFLRHSSPNFGAIPSSTNVGSDTP-NH2
# modifications: disulfide 2-7
# SMILES: CC[C@H](C)[C@H](NC(=O)[C@H](C)NC(=O)CNC(=O)[C@H](Cc1ccccc1)NC(=O)[C@H](CC(N)=O)NC(=O)[C@@H]1CCCN1C(=O)[C@H](CO)NC(=O)[C@H](CO)NC(=O)[C@H](Cc1c[nH]cn1)NC(=O)[C@H](CCCNC(=N)N)NC(=O)[C@H](CC(C)C)NC(=O)[C@H](Cc1ccccc1)NC(=O)[C@H](CCC(=O)O)NC(=O)[C@H](C)NC(=O)[C@H](CC(C)C)NC(=O)[C@H](CCCNC(=N)N)NC(=O)[C@H](CCC(N)=O)NC(=O)[C@@H](NC(=O)[C@H](C)NC(=O)[C@@H]1CSSC[C@H](NC(=O)[C@H](CCCCN)NC(=O)CC[C@H](NC(=O)CCCCCCCCCCCCCCCCCCC(=O)O)C(=O)O)C(=O)N[C@@H](CC(N)=O)C(=O)N[C@@H]([C@@H](C)O)C(=O)N[C@@H](C)C(=O)N[C@@H]([C@@H](C)O)C(=O)N1)[C@@H](C)O)C(=O)N1CCC[C@H]1C(=O)N[C@@H](CO)C(=O)N[C@@H](CO)C(=O)N[C@H](C(=O)N[C@@H](CC(N)=O)C(=O)N[C@H](C(=O)NCC(=O)N[C@@H](CO)C(=O)N[C@@H](CC(=O)O)C(=O)N[C@H](C(=O)N1CCC[C@H]1C(N)=O)[C@@H](C)O)C(C)C)[C@@H](C)O
# notes: also called compound 11
# Assays:
# [1] = biological target: T1, human calcitonin receptor; experiment: cell-based or functional assay
# [2] = biological target: T2, human amylin receptor (amylin 3(a) …); experiment: cell-based or functional assay
# [3] = biological target: T2, human amylin receptor (amylin 3(a) …); experiment: SPA competition binding, membranes of Amylin 3(a)/CRE-luc BHK cells, displacement of 125I-rat amylin (Assay V)
# Description: The binding assay was performed using scintillation proximity assay (SPA) beads (RPNQ0001) from PerkinElmer and cell membranes from the Amylin 3(a)/CRE-luc cells (as described in Assay (II)) were used. Membranes were prepared in the following way; the cells were rinsed with PBS and incubated with Versene for approximately 5 min before harvesting. The cells were flushed with PBS and the cell-suspension was centrifuged for 5 min at 1000 rpm. Cells were homogenized (ultrathurrax) in a buffer containing 20 mM Na-HEPES and 10 mM EDTA (pH 7.4) and centrifuged at 20.000 rpm for 15 min. The resulting pellet was resuspended, homogenized and centrifuged (20.000 rpm, 15 min) in a buffer containing 20 mM Na-HEPES and 0.1 mM EDTA (pH 7.4, buffer 2). The resulting pellet was resuspended in buffer 2 and protein concentration was measured (BCA protein Assay, Pierce). The homogenate was kept cold during the whole procedure. The membranes were kept at −80° C. until use. The assay was performed in a 384 well Optiplate (PerkinElmer) in a total volume of 40 ul. Membranes were mixed with SPA beads. Final concentration of membranes 35 ng/μL final and SPA beads was 0.05 mg/well. Test-compounds were dissolved in DMSO and further diluted in assay buffer (50 mM Hepes, pH 7.4, 1 mM CaCl2, 5 mM MgCl₂, 0.1% OA and 0.02% Tween20). […] The final mixture was incubated with shaking at 400 rpm for 120 min at 25° C. prior to centrifugation (1500 rpm, 10 min). Samples were analyzed on TopCounter™ (Packard). The IC₅₀ was calculated using (one site binding competition analysis) GraphPad Prism5 as a measure of receptor affinity.
Binder,Ratio hCT/hAmylin funct. (hCTR EC50 against hAmylin-R EC50) [1],hCTR funct. EC50 [1] [nM],hAmylin-R funct. EC50 [2] [nM],IC50 [3] [nM]
B1,8.7,0.857,0.099,0.577
B2,1,0.07,0.072,0.082
B3,4.8,0.742,0.154,0.554
B4,8.8,2.35,0.268,0.878
B5,0.9,0.112,0.12,0.105
